The source of these data is patent US20080194020A1, “Methods For Producing Dendritic Cells That Have Acquired Ctl-Inducing Ability” (Medical and Biological Laboratories Co., Ltd., priority 2004, published 2008).

For series [1], the system named is DC2.4 cells. As to the kind of experiment: MHC class I cross-presentation by DC2.4 cells to OT-I CD8+ T cells (IL-2 ELISA). The class given is cell-based, mouse. To be noted: for antigenicity for stimulation of CD8+ OT-I T cells: FIG. 8a, OVA compared with bOVA. The text has this:
Whether knock-down of cellular components involved in ERAD decreases the cross-presentation of exogenous OVA antigen was examined using a system for evaluating the level of antigen presentation, which uses naive CD8^+ T cells from OT-I mice and DC2.4 cells. The DC2.4 cells used as a model of dendritic cells are of the H-2Kb mouse MHC class I haplotype. OT-I (H-2Kb) mice are transgenic mice expressing a T cell receptor (TCRα and β) that recognizes an antigenic peptide (SIINFEKL) (SEQ ID NO: 15) derived from OVA presented on the H-2Kb molecules. The CD8^+ cells of OT-I mice are activated when they recognize OVA peptides presented by BMDCs derived from H-2Kb mice or by DC2.4 cells. When OVA or bOVA is incubated with and affixed onto DC2.4 cells and the cells are further incubated with naive CD8^+ T cells of OT-I mice, the amount of IL-2 produced by OT-I CD8^+ T cells serves as an index of T-cell stimulation as a result of OVA antigen presented by DC2.4 cells.
Parental or knocked-down DC2.4 cells were pre-incubated in a culture medium supplemented with 50 μg mL^−1 polymyxin B for 30 minutes in the presence or absence of lactacystin or MG-132, and incubated with OVA (250 μg mL^−1) or SIINFEKL peptides (10 ng mL^−1) for six hours. The cells were washed, fixed with 1% paraformaldehyde, and aliquoted into microtiter plates (5×10^4 per well). 5×10^4 CD8^+ T cells purified from splenocytes of OT-1 mice using magnetic beads were added to each well and after a 24-hour incubation, the IL-2 secretion was measured by ELISA (BD Biosciences) in triplicate.
DC2.4 cells were incubated with OVA (0, 50, or 250 μg/mL) in RPMI1640/10c% FCS for six hours at 37° C., in the presence or absence of pig-derived HSP90 (10 μg/mL). After washing away the antigen and HSP, OT-I CD8^+ T cells were added, cells were cultured overnight at 37° C., and the amount of IL-2 comprised in the supernatant was measured by the ELISA method.
The timing of the addition of HSP90 (10 μg/mL) and OVA (250 μg/mL) to DC2.4 cells was varied, and the effect on class I antigen presentation was observed. (i) HSP90 was added first, DC2.4 cells were washed, and then OVA was added. (ii) HSP90 and OVA were added simultaneously to DC2.4 cells. (iii) OVA was added first, and after washing DC2.4 cells, HSP90 was added. The results obtained under these three conditions were compared. […]
Under condition (i), HSP90 was added to DC2.4 cells, the cells were cultured for 30 minutes and then washed to remove HSP90. […] DC2.4 cells activated with OVA by the above procedure were plated in a 96-well plate, OT-I mouse-derived CD8^+ T cells were added to this, and after culturing overnight, the amount of IL-2 released into the supernatant was measured by ELISA. […]

Series [2] relates to DC2.4 cells. As to the kind of experiment: Polyubiquitination of antigenic protein taken up by DC2.4 cells (SDS-PAGE, Western blot with anti-polyubiquitin antibody). The class given is cell-based, mouse. The procedure:
There are reports that when the KDEL sequence (Lys-Asp-Glu-Leu) (SEQ ID NO: 3), an endoplasmic reticulum localization sequence, is added to the carboxyl terminus of a protein localized in the ER lumen, the protein is repeatedly transported between the ER and Golgi apparatus, and ERAD of that protein is promoted. Therefore, DC2.4 cells were made to take up OVA with KDEL (SEQ ID NO: 3) added to its C-terminus, and OVA that was polyubiquitinated after uptake was observed by SDS-PAGE and Western blotting. OVA to which a KDEL sequence (SEQ ID NO: 3) was added was constructed and expressed as follows: using a plasmid comprising a DNA sequence encoding OVA as a template, PCR was performed using oligo-1 (SEQ ID NO: 10) and oligo-2 (SEQ ID NO: 11) as primers. The amplified PCR product of approximately 1100 bp was introduced into a pCR-Blunt vector (Invitrogen) to obtain vector-1. Oligo-3 (SEQ ID NO: 12) and oligo-4 (SEQ ID NO: 13) were annealed, and the obtained gene fragment of approximately 100 bp was introduced into the pCR-Blunt vector to obtain vector-2. Vector-2 was digested with SpeI, the obtained gene fragment of approximately 130 bp was introduced into vector-1 that had been digested with NheI to obtain vector-3. An approximately 1250-bp gene fragment (OVA-KDEL) obtained when vector-3 was digested with BamHI/SpeI was introduced into a vector for gene expression, and then expressed. […]

Series [3] relates to DC2.4 cells. As to the kind of experiment: MHC class II antigen presentation by DC2.4 cells to OT-II CD4+ T cells (IL-2 production). The note with it: FIG. 9 control: DC2.4 cells cultured with OVA, no NH4Cl. Format: cell-based, mouse. Here is the method: DC2.4 cells pretreated in the presence of NH4Cl were cultured with OVA, and then the stimulation of OT-I CD8^+ T cells in response to MHC class I antigen presentation (circles) and stimulation of OT-II CD4^+ T cells in response to MHC class II antigen presentation (triangles) was determined by measuring IL-2 production levels. IL-2 production level in the presence of NH4Cl was expressed as a ratio relative to the control (IL-2 production was 700 pg/mL relative to OT-I, and 20 pg mL relative to OT-II).

In series [4] the test system is DC2.4 cells. As to the kind of experiment: Uptake of antigenic protein into DC2.4 cells. To be noted: CHIP-knocked-down DC2.4 cells. The class given is cell-based, mouse. Here is the method: Next, DC2.4 cells were incubated for a set amount of time with OVA in the presence or absence of lactacystin (LC), and OVA taken up into the cells was measured. OVA taken up into cells in the presence or absence of Hsp90 was measured similarly.

For series [5], the system named is DC2.4 cells.
Procedure: Intracellular localization of foreign antigens was examined by cell fractionation methods. Chicken ovalbumin (OVA) was used as an antigen model, and DC2.4 (haplotype H-2Kb), a cultured cell line of mouse dendritic cells, was used as a model for dendritic cells. […] BMDCs with a haplotype of H-2Kb, the same as that of DC2.4, were used as the control. BMDCs were induced from the bone marrow cells of C57BL/6 mice (SLC) in RPMI-1640 supplemented with 5% FCS using 5 ng/mL GM-CSF (MEL), and those cells purified by magnetic beads after five days of culturing were used.
DC2.4 cells made to take up bOVA antigens were suspended in 10 mM Tris-HCl (pH7.4) containing 250 mM sucrose, this was homogenized using glass beads, centrifuged for 30 minutes at 250,000×g, and then fractionated. The supernatant was used as the soluble fraction; the precipitates were suspended in the same buffer as described above and used as the microsomal fraction. A fixed amount was incubated in the presence or absence of 1% TritonX-100, and together with or without 100 μg mL^−1 trypsin. Before collecting bOVA, soybean trypsin inhibitor (Sigma) was added at 500 μg mL^−1.

B1: OVA-KDEL: OVA with the endoplasmic reticulum localization sequence KDEL added to its C-terminus, SEQ ID NO: 14 (protein)
chain: MGSIGAASMEFCFDVFKELKVHHANENIFYCPIAIMSALAMVYLGAKDSTRTQINKVVRFDKLPGFGDSIEAQCGTSVNVHSSLRDILNQITKPNDVYSFSLASRLYAEERYPILPEYLQCVKELYRGGLEPINFQTAADQARELINSWVESQTNGIIRNVLQPSSVDSQTAMVLVNAIVFKGLWEKAFKDEDTQAMPFRVTEQESKPVQMMYQIGLFRVASMASEKMKILELPFASGTMSMLVLLPDEVSGLEQLESIINFEKLTEWTSSNVMEERKIKVYLPRMKMEEKYNLTSVLMAMGITDVFSSSANLSGISSAESLKISQAVHAAHAEINEAGREVVGSAEAGVDAASVSEEFRADHPFLFCIKHIATNAVLFFGRCVSPASAEDYEYPSRSNGTKNNTSQASKDEL
Consider B1, for which, in the series on DC2.4 cells [1] (DC2.4 cells, data not shown), the “antigen presentation level compared to OVA (OT-I CD8+ T cells)” value is recorded as “clearly found to be stronger”. Further, the “polyubiquitination of the substrate compared to OVA” value in the series with DC2.4 cells [2] (DC2.4 cells made to take up OVA with KDEL added to its C-terminus) is given as “significantly promoted polyubiquitination”.

B2: OVA: Chicken ovalbumin used as an antigen model (protein)
chain: GSIGAASMEFCFDVFKELKVHHANENIFYCPIAIMSALAMVYLGAKDSTRTQINKVVRFDKLPGFGDSIEAQCGTSVNVHSSLRDILNQITKPNDVYSFSLASRLYAEERYPILPEYLQCVKELYRGGLEPINFQTAADQARELINSWVESQTNGIIRNVLQPSSVDSQTAMVLVNAIVFKGLWEKAFKDEDTQAMPFRVTEQESKPVQMMYQIGLFRVASMASEKMKILELPFASGTMSMLVLLPDEVSGLEQLESIINFEKLTEWTSSNVMEERKIKVYLPRMKMEEKYNLTSVLMAMGITDVFSSSANLSGISSAESLKISQAVHAAHAEINEAGREVVGSAEAGVDAASVSEEFRADHPFLFCIKHIATNAVLFFGRCVSP
On to B2, for which the “antigenicity for stimulation of CD8+ OT-I T cells” value in the series on DC2.4 cells [1] is on record as “equally antigenic”. In the series with DC2.4 cells [1] (FIG. 9 control: DC2.4 cells cultured with OVA, no NH4Cl), the “IL-2 production, OT-I CD8+ T cells” value was found to be 700 pg/mL. Also, the “IL-2 production, OT-II CD4+ T cells” value in the series on DC2.4 cells [3] was determined as 20 pg·mL.

B3: bOVA: OVA antigen recovered with streptavidin beads (biotin-labeled samples) (protein)
chain: GSIGAASMEFCFDVFKELKVHHANENIFYCPIAIMSALAMVYLGAKDSTRTQINKVVRFDKLPGFGDSIEAQCGTSVNVHSSLRDILNQITKPNDVYSFSLASRLYAEERYPILPEYLQCVKELYRGGLEPINFQTAADQARELINSWVESQTNGIIRNVLQPSSVDSQTAMVLVNAIVFKGLWEKAFKDEDTQAMPFRVTEQESKPVQMMYQIGLFRVASMASEKMKILELPFASGTMSMLVLLPDEVSGLEQLESIINFEKLTEWTSSNVMEERKIKVYLPRMKMEEKYNLTSVLMAMGITDVFSSSANLSGISSAESLKISQAVHAAHAEINEAGREVVGSAEAGVDAASVSEEFRADHPFLFCIKHIATNAVLFFGRCVSP
Take B3: the “antigenicity for stimulation of CD8+ OT-I T cells” value with DC2.4 cells [1] is “equally antigenic”. In addition, the “polyubiquitination of bOVA” value in the series on DC2.4 cells [2] (CHIP-knocked-down DC2.4 cells) was found to be 34%. For the same molecule, in the series with DC2.4 cells [4], the “uptake of bOVA relative to parental DC2.4 cells” value is recorded as “about 70%”. The “share of bOVA taken up by cells recovered as trypsin-resistant bOVA from the microsomal fraction” value in the series on DC2.4 cells [5] is at least 70%.
